Results reported in US20230140293A1.

Assays:
Test in all cases: ELISA, gp120 on plate
[1] = molecular target: CH505 M11 gp120 (HIV-1)
[2] = molecular target: CH505 M5 gp120 (HIV-1)
[3] = molecular target: CH505 transmitted/founder (TF) gp120 (HIV-1)
[4] = molecular target: CH505 w020.14 gp120 (HIV-1)
[5] = molecular target: CH505 w030.28 gp120 (HIV-1)
[6] = molecular target: CH505 w053.16 gp120 (HIV-1)
[7] = molecular target: CH505 w078.15 gp120 (HIV-1)

| Substance | log AUC [1] [log AUC] | log AUC [2] [log AUC] | log AUC [3] [log AUC] | log AUC [4] [log AUC] | log AUC [5] [log AUC] | log AUC [6] [log AUC] | log AUC [7] [log AUC] |
| --- | --- | --- | --- | --- | --- | --- | --- |
| CH103 lineage intermediate ancestor IA3 (antibody) | 11.8 | 6.8 | 11 | 9.5 | 7.7 | 1.1 | 3 |
| CH103 lineage intermediate ancestor IA4 (antibody) | 10.5 | 3.8 | 10.1 | 8.6 | 6.5 | 0.2 | 1.3 |
| CH103 lineage intermediate ancestor IA6 (antibody) | 10 | 3.3 | 9.1 | 7.9 | 6.3 |  | 1 |
| CH103 lineage intermediate ancestor IA7 (antibody) | 10.1 | 2.3 | 9.2 | 7.2 | 3.5 |  | 0.7 |
